Read-outs that look alike come from different tables or passages of the source.
Assays:
[1] = target: receptor-binding domain (RBD) of the SARS-CoV S protein, amino acids 318-510, histidine-tagged (SARS-CoV, strain , UniProt P59594); experiment: ELISA
[2] = target: T1, mouse Fc-tagged RBD of MERS-CoV (MERS-CoV, strain not named; EMC/2012 …, UniProt K0BRG7); experiment: immunostaining of cells or tissue
[3] = target: mouse Fc-tagged RBD of Bt-CoV-HKU4 (Bat coronavirus HKU4 (BtCoV/HKU4/2004), UniProt A3EX94); experiment: immunostaining of cells or tissue
[4] = target: mouse Fc-tagged RBD of Bt-CoV-HKU5 (Bat coronavirus HKU5 (BtCoV/HKU5/2004), UniProt A3EXD0); experiment: immunostaining of cells or tissue
N protein of MERS-CoV = N protein of MERS-CoV (MERS-CoV, strain , UniProt K9N4V7); experiment: immunostaining of cells or tissue
[5] = target: T1, mouse Fc-tagged RBD of MERS-CoV
S protein of MERS-CoV = S protein of MERS-CoV (MERS-CoV, strain not named; EMC/2012 …, UniProt K0BRG7)

Binder	binding result [1]	binding result [2]	binding result [3]	binding result [4]	binding result (N protein of MERS-CoV)	binding result [5]	binding result (S protein of MERS-CoV)
MAb 45E11 (antibody, V domains shown) VH: QVQLKESGPGLVAPSQSLSITCTVSGFSLTGFGVNWVRQPPGKGLEWLGMIWGDGGTDYNSTLKSRLSFSKDNSKSQVFLKMNSLQTDDTARYYCARAAGTGDYFDYWGQGTTLTVSS VL: DIQMTQSPASLSASVGETVTITCRASENIYSYLAWYQQKQGKSPQLLVYNAKTLAEGVPSRFSGSGSGTQFSLKINSLQPEDFGSYYCQHHYGTPWTFGGGTKLEIK	no binding	binds	no binding	no binding	no binding		
MAb 45C2 (antibody, V domains shown) VH: QVQLKESGPGLVAPSQSLSITCTVSGFSLTGYGVNWVRQPPGKGLEWLGMIWGDGGTDYNSALKSRLSITKDNSKSQVFLKMNSLLPDDTARYYCARAAGTGDYFDYWGQGTTLTVSS VL: DIQMTQSPASLSASVGETVTITCRASENIDSYLAWYQQKQGKSPQLLVYNAKTLAEGVPSRFGGSGSGTQFSLKIYSLQPEDFGNYYCQHHYGTPWTFGGGTKLEIK	no binding	binds	no binding	no binding	no binding		
43A9 (antibody, V domains shown) VH: QVQLQQSGAELARPGASVKLSCNASGYIFSSYWMQWVKQRPGQGLEWIGAIYPGDGDTRYSQKFRGKATVTADKSSSTAYMQLSSLASADSAVYYCARFGDGYYYPMDYWGQGTSVTVSS VL: DIVMTQAAPSVPVTPGESVSISCRSSKSLLHSNGNTYLYWFLQRPGQSPQLLIYRMSNLASGVPDRFSGSGSGTAFTLRISRVEAEDVGVYYCMQHLEYPFTFGSGTKLEIK						binds	binds
